This assay deals with human FGFR1-IIIb (human). The experiment in a line: SPR. In general terms: In SPR one partner is held on a chip, and binding of the other changes the refractive index at the surface.

The values that follow come from publication PMC2883168.

Usually Kd stands for the constant that tells how readily two partners part at equilibrium.

Chain of human FGFR1-IIIb (human) (P11362 22-822): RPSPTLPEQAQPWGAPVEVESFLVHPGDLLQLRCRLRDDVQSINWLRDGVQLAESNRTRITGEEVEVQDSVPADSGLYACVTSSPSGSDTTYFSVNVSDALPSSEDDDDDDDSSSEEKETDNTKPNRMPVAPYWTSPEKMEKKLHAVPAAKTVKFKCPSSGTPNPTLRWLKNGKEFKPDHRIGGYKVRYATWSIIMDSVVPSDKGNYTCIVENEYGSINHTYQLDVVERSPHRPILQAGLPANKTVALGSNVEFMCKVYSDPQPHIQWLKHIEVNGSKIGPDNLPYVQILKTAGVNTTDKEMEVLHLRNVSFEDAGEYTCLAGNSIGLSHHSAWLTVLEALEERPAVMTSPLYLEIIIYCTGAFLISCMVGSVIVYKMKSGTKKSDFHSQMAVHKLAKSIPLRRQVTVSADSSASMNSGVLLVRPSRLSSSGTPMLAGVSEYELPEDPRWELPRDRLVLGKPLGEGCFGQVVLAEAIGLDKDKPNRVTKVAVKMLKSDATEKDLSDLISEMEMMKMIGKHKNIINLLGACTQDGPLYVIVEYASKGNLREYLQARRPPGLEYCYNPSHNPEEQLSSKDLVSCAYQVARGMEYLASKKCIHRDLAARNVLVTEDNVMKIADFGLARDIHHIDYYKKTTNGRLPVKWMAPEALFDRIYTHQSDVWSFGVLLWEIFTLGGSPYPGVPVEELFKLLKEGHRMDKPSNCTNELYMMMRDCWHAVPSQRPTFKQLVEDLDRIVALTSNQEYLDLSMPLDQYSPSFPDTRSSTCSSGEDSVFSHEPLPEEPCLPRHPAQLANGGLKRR

Consider “native, recombinant FGF-2 (from UniProt P09038 1-288) (ligand)”, for which the Kd stood at 952 nM.
